Reference: FireProtDB (doi:10.1002/pro.342)

B1: Regulatory protein rop, P03051 (parent)
chain: MTKQEKTALNMARFIRSQTLTLLEKLNELDADEQADICESLHDHADELYRSCLARFGDDGENL

Variants of: B1
Details: Escherichia coli, pH 6.3, CD, Phosphate 50 mM, NaCl 300 mM, structure 1ROP, whole UniProt chain shown; for Tm / change of melting temperature, mutant - wild type (higher = more stable) / heat capacity change of unfolding / unfolding enthalpy (van 't Hoff): Thermal

Row | Variant | Tm [°C] | change of melting temperature, mutant - wild type (higher = more stable) [°C] | heat capacity change of unfolding [kcal/mol/K] | unfolding enthalpy (van 't Hoff) [kcal/mol] | ddG of mutation (higher = less stable) (Urea) [kcal/mol] | denaturant m value (Urea) [kcal/mol/M] | denaturant midpoint (higher = more stable) (Urea) [M] | unfolding free energy (Urea) [kcal/mol]
1 | MTKQEKTALNMARFIRSQTLTLLEKLNELDADEQADIAESLHDHADELYRSALARFGDDGENL | 56 | -14 | 1.1 | 65 | 8.3 | 0.9 | 2.3 | 7.7
2 | MTKQEKTALNMARFIRSQTLTLLEKLNELDADEQADIAESLHDHADELYRSVLARFGDDGENL | 74 | 4 | 1.1 | 65 | – | 1.3 | 4.1 | 11
